From patent US20110318757A1 (MAB FACTORY, published 2011)

Assays:
[1] = target: T1, MUC1 (surface cell bound, tumor associated MUC1) (human, UniProt P15941 24-1255, tumor-associated O-glycosylation); test: FACS on T47D cells, antibody at 1.0000 µg/ml
T1 construct: whole, on cells; Endogenous MUC1 on tumor cell lines; also called CD227; CA-15-3
Description: (§1) From these antibody solutions further dilution by a factor of 3.162 were made (in a PP microtiter plate), so following antibody concentrations were used for FACS (μg/mL): 100, 31.62 10; 3.16; 1; 0.316; 0.1, 0.0316, 0.01, 0.003162
(§2) bound anti-MUC1 antibodies were detected by: goat anti-human IgG (H+L) Alexa488 conj. 1:200=10 μg/mL final (Invitrogen resp. Molecular probes Cat.No. A-11013) in 100 μL FACS buffer in total: 38.5 μL (stock: 2 mg/mL) were given to 7661.5 μL FACS buffer
(§3) The measurement was performed on a Beckman Coulter Cytomics FC500. Gates were set by analyzing a mock-control of each cell line w/o any antibody incubation. Specific protocol files (.pro) were saved.

[2] = target: T1, MUC1 (surface cell bound, tumor …); test: FACS on T47D cells, antibody at 31.6228 µg/ml
Description: as §1, §2, §3

[3] = target: T1, MUC1 (surface cell bound, tumor …); test: FACS on T47D cells, antibody at 0.0100 µg/ml
Description: as §1, §2, §3

[4] = target: T1, MUC1 (surface cell bound, tumor …); test: FACS on T47D cells, antibody at 10.0000 µg/ml
Description: as §1, §2, §3

[5] = target: T1, MUC1 (surface cell bound, tumor …); test: FACS on T47D cells, antibody at 3.1623 µg/ml
Description: as §1, §2, §3

[6] = target: T1, MUC1 (surface cell bound, tumor …); test: FACS on T47D cells, antibody at 0.0316 µg/ml
Description: as §1, §2, §3

[7] = target: T1, MUC1 (surface cell bound, tumor …); test: FACS on T47D cells, antibody at 0.3162 µg/ml
Description: as §1, §2, §3

[8] = target: T1, MUC1 (surface cell bound, tumor …); test: FACS on T47D cells, antibody at 100.0000 µg/ml
Description: as §1, §2, §3

[9] = target: T1, MUC1 (surface cell bound, tumor …); test: FACS on T47D cells, antibody at 0.0032 µg/ml
Description: as §1, §2, §3

[10] = target: T1, MUC1 (surface cell bound, tumor …); test: FACS on T47D cells, antibody at 0.1000 µg/ml
Description: as §1, §2, §3

T1 sequence (P15941 24-1255): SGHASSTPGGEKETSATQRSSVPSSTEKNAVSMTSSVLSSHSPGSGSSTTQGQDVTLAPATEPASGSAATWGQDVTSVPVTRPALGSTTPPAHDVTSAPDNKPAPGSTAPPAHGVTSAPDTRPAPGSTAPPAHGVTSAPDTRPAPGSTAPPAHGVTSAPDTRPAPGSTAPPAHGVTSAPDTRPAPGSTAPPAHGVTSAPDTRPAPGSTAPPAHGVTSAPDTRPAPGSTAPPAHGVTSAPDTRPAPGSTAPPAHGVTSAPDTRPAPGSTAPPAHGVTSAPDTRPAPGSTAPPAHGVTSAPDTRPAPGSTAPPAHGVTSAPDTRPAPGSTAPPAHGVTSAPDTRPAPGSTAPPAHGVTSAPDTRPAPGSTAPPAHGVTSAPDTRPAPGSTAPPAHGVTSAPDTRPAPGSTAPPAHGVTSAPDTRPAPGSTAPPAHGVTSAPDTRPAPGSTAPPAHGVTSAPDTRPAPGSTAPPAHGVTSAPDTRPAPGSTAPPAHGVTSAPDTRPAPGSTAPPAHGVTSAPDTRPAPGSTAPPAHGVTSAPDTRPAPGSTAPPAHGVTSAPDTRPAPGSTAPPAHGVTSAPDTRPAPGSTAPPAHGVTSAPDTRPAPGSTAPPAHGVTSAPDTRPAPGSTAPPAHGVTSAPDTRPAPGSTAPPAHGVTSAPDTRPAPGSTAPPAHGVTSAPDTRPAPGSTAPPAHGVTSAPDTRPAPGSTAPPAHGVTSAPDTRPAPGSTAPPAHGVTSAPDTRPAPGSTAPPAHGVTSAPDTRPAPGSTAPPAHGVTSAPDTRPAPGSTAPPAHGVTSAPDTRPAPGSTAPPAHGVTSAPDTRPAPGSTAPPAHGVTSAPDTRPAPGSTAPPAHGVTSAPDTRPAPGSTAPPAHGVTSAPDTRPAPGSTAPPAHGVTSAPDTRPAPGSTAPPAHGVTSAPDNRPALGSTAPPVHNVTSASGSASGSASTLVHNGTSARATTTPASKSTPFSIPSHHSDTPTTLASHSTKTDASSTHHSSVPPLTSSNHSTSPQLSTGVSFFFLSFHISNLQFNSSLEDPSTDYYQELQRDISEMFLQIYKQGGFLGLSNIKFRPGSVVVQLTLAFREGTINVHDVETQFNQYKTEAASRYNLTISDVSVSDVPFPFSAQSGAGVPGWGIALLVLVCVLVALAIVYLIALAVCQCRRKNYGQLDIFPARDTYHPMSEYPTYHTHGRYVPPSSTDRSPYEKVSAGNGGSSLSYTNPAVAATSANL

| Binder | MFI [1] | MFI [2] | MFI [3] | MFI [4] | MFI [5] | MFI [6] | MFI [7] | MFI [8] | MFI [9] | MFI [10] |
| --- | --- | --- | --- | --- | --- | --- | --- | --- | --- | --- |
| R764-B7 (HT186-B7 IgG) (antibody, V domains shown, Human IgG1, lambda, produced in YB2/0 cells) VH: QMQLVQSGAEVKKPGASVKVSCKASGYTFTGHYMHWVRQAPGQGLEWMGWIDPVTGGTKYAQNFQGWVTMTRDTSIRTAYMELSRLRSDDTAMYYCAREVTGDRGQFDKWGQGTLVTVAS VL: QSVLTQPPSVSVAPGKTARITCGGNNIGSKSVHWYQQKPGQAPALVIYYGSYRPSGIPERFSGSNYGNTATLTIRRVEAGDEADYYCQVWDSSSDWVFGGGTKLTVLG | 2.26 | 9.16 | 1.11 | 6.56 | 4.96 | 1.04 | 1.44 | 12.6 | 0.738 | 0.728 |
| R764-D11 (HT186-D11 IgG) (antibody, V domains shown, Human IgG1, lambda, produced in YB2/0 cells; also called R764 HT186-D11) VH: QMQLVQSEAELKKPGASVKVSCKASGYSFTGHYMHWVRQAPGQGLEWMGWIDPVTGGTKYAQNFQGWVTMTRDTSIRTAYLELSRLRSDDTAMYYCAREVTGDRGQFDKWGQGTLVTVAS VL: QSVLTQPPSVSVAPGKTARITCGGNNIGSKSVHWYQQKPGQAPALVIYYGSNRPSGIPERFSGSNSGNTATLTISRVEAGDEADYYCQVWDSSSDWVFGGGTKLTVLG | 4.72 | 13.2 | 1.09 | 11.1 | 7.92 | 1.13 | 1.96 | 17.4 | 1.17 | 1.45 |
| R764-G2 (HT186-G2 IgG) (antibody, V domains shown, Human IgG1, lambda, produced in YB2/0 cells) VH: RMQLVQSGAEVKKPGASVKLSCKASGYTFAGHYMHWVRQAPGRGLEWMGWIDPVTGGTKYAQNFQGWVTMTRDTSIRTAYMELSRLRSDDTAMYYCAREVTGDRGQFDKWGQGTLVTVAS VL: QSVLTQPPSVSVAPGKTARITCGGNNIGSKSVHWYQQKPGQAPVLVIYYGSDRSSGIPERFSGSNSGNTATLTISRVEAGDEADYYCQVWDSSSDWVFGGGTKLTVLG | 0.605 | 3.68 | 0.767 | 1.99 | 0.802 | 1.04 | 0.515 | 6.15 | 0.706 | 0.664 |
